Bridge positions count the residues as written; N and C are the ends. Square brackets hold non-standard residues; d marks the D form. Primed or numbered codes have the meaning given here. Ends that are not written are not given here. Tyr(3-NO2) = N[C@@H](Cc1ccc(O)c([N+](=O)[O-])c1)C(=O)O; Tyr(3-Cl) = N[C@@H](Cc1ccc(O)c(Cl)c1)C(=O)O; Phe(4-NH2) = Nc1ccc(C[C@H](N)C(=O)O)cc1; 1,4 AMB(Gd^T) = not defined here; Gd^T = not defined here; Gd^T″ = GdDTPA-thiourea
Tests used:
[1] = target: T1, human collagen type I, acid soluble, extracted from placenta (Sigma C7774) (human, UniProt P02452 162-1218; P08123 80-1119); experiment: dried collagen assay
T1 construct: tissue extract, gelled and dried in wells; also called dried human collagen; h-Collagen

[2] = target: T2, rat collagen, acid soluble, type I, rat tail (Upstate 08-115) (rat, UniProt P02454 152-1207; P02466 86-1125); experiment: dried collagen assay
T2 construct: tissue extract, gelled and dried in wells; also called dried rat collagen
T2 sequence (P02454 152-1207, chain 1 of 2): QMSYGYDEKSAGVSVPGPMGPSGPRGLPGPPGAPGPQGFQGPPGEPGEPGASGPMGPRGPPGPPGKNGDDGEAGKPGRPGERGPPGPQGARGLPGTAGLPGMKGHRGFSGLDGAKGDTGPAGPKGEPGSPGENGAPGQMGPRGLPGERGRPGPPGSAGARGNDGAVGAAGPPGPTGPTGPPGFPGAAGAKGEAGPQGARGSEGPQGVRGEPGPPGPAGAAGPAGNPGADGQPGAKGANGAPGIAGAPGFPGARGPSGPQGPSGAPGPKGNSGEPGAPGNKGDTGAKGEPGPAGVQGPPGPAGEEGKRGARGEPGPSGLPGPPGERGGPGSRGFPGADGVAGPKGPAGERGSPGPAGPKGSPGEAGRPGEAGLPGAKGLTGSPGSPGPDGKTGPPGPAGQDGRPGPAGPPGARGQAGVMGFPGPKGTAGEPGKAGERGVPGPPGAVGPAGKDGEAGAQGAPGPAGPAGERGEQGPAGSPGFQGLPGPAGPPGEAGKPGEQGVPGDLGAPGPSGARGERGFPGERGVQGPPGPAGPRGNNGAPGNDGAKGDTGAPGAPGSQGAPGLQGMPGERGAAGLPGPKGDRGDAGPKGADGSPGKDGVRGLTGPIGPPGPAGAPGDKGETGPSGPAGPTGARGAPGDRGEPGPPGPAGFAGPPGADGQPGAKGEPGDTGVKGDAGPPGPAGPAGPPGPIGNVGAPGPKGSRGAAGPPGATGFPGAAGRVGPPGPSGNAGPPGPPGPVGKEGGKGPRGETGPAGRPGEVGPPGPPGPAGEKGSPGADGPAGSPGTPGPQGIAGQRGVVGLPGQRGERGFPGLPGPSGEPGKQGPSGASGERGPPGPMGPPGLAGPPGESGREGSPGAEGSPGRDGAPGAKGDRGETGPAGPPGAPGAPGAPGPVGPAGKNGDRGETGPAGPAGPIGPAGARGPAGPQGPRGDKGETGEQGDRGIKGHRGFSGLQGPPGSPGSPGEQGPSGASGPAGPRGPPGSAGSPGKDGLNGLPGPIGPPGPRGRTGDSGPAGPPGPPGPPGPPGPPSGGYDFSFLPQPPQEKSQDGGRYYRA
T2 sequence (P02466 86-1125, chain 2 of 2): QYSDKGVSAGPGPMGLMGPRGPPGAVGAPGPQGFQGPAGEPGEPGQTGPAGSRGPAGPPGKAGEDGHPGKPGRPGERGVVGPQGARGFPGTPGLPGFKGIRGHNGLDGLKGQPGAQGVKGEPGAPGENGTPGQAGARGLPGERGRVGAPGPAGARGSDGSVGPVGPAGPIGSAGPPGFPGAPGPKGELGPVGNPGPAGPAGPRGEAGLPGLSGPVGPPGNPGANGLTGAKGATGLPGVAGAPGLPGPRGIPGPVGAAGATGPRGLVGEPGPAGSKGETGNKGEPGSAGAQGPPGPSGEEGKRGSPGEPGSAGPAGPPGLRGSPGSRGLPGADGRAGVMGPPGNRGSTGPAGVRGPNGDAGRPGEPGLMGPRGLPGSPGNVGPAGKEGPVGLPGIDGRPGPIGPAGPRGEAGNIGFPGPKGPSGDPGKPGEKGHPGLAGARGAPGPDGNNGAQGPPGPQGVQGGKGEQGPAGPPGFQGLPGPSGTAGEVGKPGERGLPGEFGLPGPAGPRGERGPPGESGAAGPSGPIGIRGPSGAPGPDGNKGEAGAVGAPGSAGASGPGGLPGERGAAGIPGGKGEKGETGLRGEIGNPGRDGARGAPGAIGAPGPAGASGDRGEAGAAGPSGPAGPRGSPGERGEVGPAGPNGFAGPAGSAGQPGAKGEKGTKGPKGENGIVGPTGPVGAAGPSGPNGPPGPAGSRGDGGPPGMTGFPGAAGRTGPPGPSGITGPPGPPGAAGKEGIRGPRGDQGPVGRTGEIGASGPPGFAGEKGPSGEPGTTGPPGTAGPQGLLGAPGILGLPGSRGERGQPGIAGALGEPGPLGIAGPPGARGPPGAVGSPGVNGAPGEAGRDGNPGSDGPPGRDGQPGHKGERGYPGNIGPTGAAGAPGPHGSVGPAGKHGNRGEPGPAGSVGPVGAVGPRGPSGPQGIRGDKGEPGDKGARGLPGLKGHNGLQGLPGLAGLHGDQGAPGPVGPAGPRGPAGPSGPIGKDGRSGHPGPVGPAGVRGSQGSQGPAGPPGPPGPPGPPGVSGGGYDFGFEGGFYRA

T1 sequence (P02452 162-1218 limits assumed, chain 1 of 2): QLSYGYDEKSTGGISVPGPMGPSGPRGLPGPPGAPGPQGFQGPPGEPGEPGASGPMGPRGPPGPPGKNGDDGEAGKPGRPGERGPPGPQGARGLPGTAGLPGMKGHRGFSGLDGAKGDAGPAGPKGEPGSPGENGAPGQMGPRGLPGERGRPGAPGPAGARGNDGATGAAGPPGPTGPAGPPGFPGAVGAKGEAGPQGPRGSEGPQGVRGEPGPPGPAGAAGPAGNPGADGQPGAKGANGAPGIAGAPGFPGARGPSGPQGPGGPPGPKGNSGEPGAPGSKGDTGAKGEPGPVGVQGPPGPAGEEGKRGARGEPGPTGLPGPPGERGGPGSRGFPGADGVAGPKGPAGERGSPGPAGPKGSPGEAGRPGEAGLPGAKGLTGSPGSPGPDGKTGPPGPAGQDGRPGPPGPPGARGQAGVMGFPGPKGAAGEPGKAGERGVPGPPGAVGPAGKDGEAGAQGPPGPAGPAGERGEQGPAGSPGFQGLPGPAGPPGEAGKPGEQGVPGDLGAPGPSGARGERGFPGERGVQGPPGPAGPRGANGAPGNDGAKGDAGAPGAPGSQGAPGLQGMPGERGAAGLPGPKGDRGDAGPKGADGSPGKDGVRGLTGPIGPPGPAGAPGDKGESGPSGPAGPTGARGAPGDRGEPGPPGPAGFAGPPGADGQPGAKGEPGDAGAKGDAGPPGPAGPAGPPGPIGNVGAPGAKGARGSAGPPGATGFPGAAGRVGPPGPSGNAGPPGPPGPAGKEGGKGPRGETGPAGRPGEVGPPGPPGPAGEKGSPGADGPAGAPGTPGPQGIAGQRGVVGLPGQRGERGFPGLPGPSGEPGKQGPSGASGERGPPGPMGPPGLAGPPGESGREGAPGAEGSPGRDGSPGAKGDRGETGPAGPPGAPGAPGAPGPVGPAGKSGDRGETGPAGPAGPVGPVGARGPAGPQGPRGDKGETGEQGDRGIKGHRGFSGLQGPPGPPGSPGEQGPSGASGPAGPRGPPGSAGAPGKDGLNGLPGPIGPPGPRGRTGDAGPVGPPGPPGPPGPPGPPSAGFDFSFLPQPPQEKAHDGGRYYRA
T1 sequence (P08123 80-1119 limits assumed, chain 2 of 2): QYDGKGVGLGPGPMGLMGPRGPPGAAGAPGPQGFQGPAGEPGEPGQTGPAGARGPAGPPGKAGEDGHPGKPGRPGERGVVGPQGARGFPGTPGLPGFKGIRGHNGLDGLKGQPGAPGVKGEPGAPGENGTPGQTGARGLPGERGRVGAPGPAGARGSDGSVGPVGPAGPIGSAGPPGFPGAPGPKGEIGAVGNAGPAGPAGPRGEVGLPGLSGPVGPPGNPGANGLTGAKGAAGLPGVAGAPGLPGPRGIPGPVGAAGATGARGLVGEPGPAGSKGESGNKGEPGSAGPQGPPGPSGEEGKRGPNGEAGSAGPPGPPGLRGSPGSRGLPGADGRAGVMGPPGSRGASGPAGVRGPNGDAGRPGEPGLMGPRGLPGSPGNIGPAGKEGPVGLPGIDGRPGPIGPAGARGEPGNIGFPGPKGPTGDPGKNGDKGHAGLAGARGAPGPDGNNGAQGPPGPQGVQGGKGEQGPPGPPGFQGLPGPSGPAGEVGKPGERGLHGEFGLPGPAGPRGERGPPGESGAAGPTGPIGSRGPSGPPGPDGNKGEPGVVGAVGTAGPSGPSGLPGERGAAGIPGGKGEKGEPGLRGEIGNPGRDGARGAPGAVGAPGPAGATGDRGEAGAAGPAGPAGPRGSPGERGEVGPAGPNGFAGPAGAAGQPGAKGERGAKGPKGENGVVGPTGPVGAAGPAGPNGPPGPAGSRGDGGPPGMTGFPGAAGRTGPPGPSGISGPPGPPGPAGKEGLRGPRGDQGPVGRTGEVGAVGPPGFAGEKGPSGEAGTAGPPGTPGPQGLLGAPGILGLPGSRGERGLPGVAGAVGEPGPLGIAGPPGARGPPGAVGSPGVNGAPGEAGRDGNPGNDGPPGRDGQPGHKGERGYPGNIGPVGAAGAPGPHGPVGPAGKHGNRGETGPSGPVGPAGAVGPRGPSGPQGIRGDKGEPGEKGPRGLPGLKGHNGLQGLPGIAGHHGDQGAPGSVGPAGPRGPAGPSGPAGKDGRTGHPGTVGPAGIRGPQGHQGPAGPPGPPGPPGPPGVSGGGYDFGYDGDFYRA

Binder | % bound [1] | % bound [2]
{Gd^T}-DWTC[Tyr(3-NO2)]GDEYTWHCNYE (disulfide 4-13 (inferred); not fully specified (C-terminus); reading uncertain) [Compound ID 843] | 55% | 36%
{Gd^T}-DWTCYGDEYTWHCNYE (disulfide 4-13 (inferred); not fully specified (C-terminus); reading uncertain) [Compound ID 844] | 68% | 48%
{Gd^T}-DWTCSGDEYRWHCNYE (disulfide 4-13 (inferred); not fully specified (C-terminus); reading uncertain) [Compound ID 845] | 36% | 10%
{Gd^T″}-GQWHCTTYFPHHYCLYG-{1,4 AMB(Gd^T)} (disulfide 5-14 (inferred); reading uncertain) [Compound ID 816] | 48% | 48%
{Gd^T″}-GQWHCTTDFPHHYCL[Tyr(3-Cl)]G (disulfide 5-14 (inferred)) [Compound ID 892] | 63% | 56%
{Gd^T″}-GQWHCTTK(Gd^T″)FPHHYCLYG (disulfide 5-14 (inferred); not fully specified (C-terminus)) [Compound ID 813] | 65% | 55%
{Gd^T}-GQWHCTTRFPHH[dY]CLYG (disulfide 5-14 (inferred); not fully specified (C-terminus); reading uncertain) [Compound ID 864] | 64% | 50%
{Gd^T}-GQWHCTTRFPAHYCLYG (disulfide 5-14 (inferred); not fully specified (C-terminus); reading uncertain) [Compound ID 865] | 30% | 17%
{Gd^T″}-GQWHCTTDFPHHYCLFG (disulfide 5-14 (inferred)) [Compound ID 890] | 38% | 15%
{Gd^T}-GQWHCTTAFPHHYCLYG (disulfide 5-14 (inferred); not fully specified (C-terminus); reading uncertain) [Compound ID 853] | 66% | 57%
{Gd^T″}-GQWHCATRFPHHYCLYG (disulfide 5-14 (inferred)) [Compound ID 877] | 58% | 41%
{Gd^T″}-GQWSCTTRFPHHYCLYG (disulfide 5-14 (inferred)) [Compound ID 870] | 30% | 28%
{Gd^T″}-K(Gd^T″)K(Gd^T″)WHCYTYFPHHYCVYG (disulfide 5-14 (inferred); not fully specified (C-terminus)) [Compound ID 801] | 81% | 77%
{Gd^T″}-GQWHCTTRFPHHYCK(Gd^T″)YG (disulfide 5-14 (inferred); not fully specified (C-terminus)) [Compound ID 815] | 66% | 59%
{Gd^T″}-GAWHCTTLFPHH[dY]CLYG (disulfide 5-14 (inferred); not fully specified (C-terminus)) [Compound ID 908] | 20% | 0%
{Gd^T″}-GQWHCT[dY]RFPHHYCLYG (disulfide 5-14 (inferred); not fully specified (C-terminus)) [Compound ID 899] | 20% | 14%
{Gd^T″}-GQWHCT[dT]RFPHHYCLYG (disulfide 5-14 (inferred)) [Compound ID 879] | 33% | 0%
{Gd^T}-GQWHCTTRYPHHYCLYG (disulfide 5-14 (inferred); not fully specified (C-terminus); reading uncertain) [Compound ID 859] | 47% | 38%
{Gd^T}-G[dQ]WHCTTRFPHHYCLYG (disulfide 5-14 (inferred); not fully specified (C-terminus); reading uncertain) [Compound ID 866] | 60% | 38%
{Gd^T″}-GQWHCTTD[Phe(4-NH2)]PHHYCLYG (disulfide 5-14 (inferred)) [Compound ID 884] | 24% | 15%
{Gd^T″}-GQWACTTRFPHHYCLYG (disulfide 5-14 (inferred)) [Compound ID 876] | 48% | 26%
{Gd^T}-GQWHCTTDFPHHYCLYG (disulfide 5-14 (inferred); not fully specified (C-terminus); reading uncertain) [Compound ID 851] | 50% | 41%
{Gd^T}-GAWHCTTRFPHHYCLYG (disulfide 5-14 (inferred); not fully specified (C-terminus); reading uncertain) [Compound ID 857] | 67% | 69%
{Gd^T}-GQWHCTTRFPHHYCAYG (disulfide 5-14 (inferred); not fully specified (C-terminus); reading uncertain) [Compound ID 855] | 27% | 15%
{Gd^T″}-GQWHCTTRFPSHYCLYG (disulfide 5-14 (inferred)) [Compound ID 880] | 30% | 0%
